In US20050112698A1 (Bayer, published 2005):
Substitutions are numbered along the chain they refer to. Blank lines part the entries; values can stand above or below the binder they belong to.

Key:
human Stem Cell Factor [1] = target: T1, human Stem Cell Factor (human, UniProt P21583 26-189); assay: cell-based or functional assay
human Stem Cell Factor [2] = target: T1, human Stem Cell Factor; assay: cell-based or functional assay; remark: listed apart in the source
Cynomolgus Monkey SCF [3] = target: T2, Cynomolgus Monkey SCF (cynomolgus monkey, UniProt A0A7N9CAX5 26-189); assay: cell-based or functional assay
human Stem Cell Factor [4] = target: T1, human Stem Cell Factor; assay: BIAcore, Affinity Estimation, Fab
Cynomolgus Monkey SCF [5] = target: T2, Cynomolgus Monkey SCF; assay: SPR BIAcore 2000, Fab over 185 RU immobilized cSCF
Experimental: (§1) Affinity measurements were carried out on a BIAcore 2000 (Biacore) at 25° C. […] Purified Fab's were diluted in HBS-EP running buffer at concentrations ranging from 1.95 to 125 nM. A volume of 100 μl was injected using a flow rate of 50 μl/min in Kinject mode. After a 10 min dissociation, 50 μl of 10 mM Glycine, pH 2.5 and 25 μl of 10 mM Glycine, pH 2.0 was injected using a flow rate of 100 μl/min. All samples were run in duplicate. […] Cynomologus monkey SCF was diluted in HBS-EP running buffer at concentrations ranging from 15.6 to 500 nM and 150 μl injected at a flow rate of 50 μl/min. After a 15 min dissociation, 50 μl of 10 mM Glycine, pH 2.5, and 25 μl of 10 mM Glycine, pH 1.5 was injected using a flow rate of 100 μl/min. All samples were run in duplicate. The data was globally fit to the 1 to 1 binding model using BIAevaluation software. The raw experimental data were corrected for instrumental and bulk solvent artifacts by double referencing using both activated and blocked surfaces as controls.
(§2) To evaluate the binding properties of anti-SCF Fabs selected from affinity optimization of the CDR3 loop with SCF, the real time interaction was measured using surface plasmon resonance with the BIAcore 2000. […] The improvement in Kd's are primarily governed by a substantial reduction in the off-rate (koff). […] The affinity constants for Fab binding to human SCF were slightly lower than those Kd's for cynomologus monkey SCF. The panning design, with lower antigen concentrations and extensive washing steps, favors off-rate selection. The affinity of the A2-G8 clone in an IgG vector was measured using the IgG immobilized to the surface of the CM5 chip.

Cynomolgus Monkey SCF [6] = target: T2, Cynomolgus Monkey SCF; assay: competition ELISA: cSCF binding to coated human SCFR, Fab 3.1 µg/ml
Experimental: The extracts containing Fab were also tested for the ability to inhibit SCF binding to the SCF receptor. ELISA plates were coated overnight with 2 μg/ml human SCFR (R&D Systems, Minneapolis, Minn.) in PBS at 4° C. After washing with TBS-T, the plate was blocked with 5 mg/ml BSA in PBS. The extract was diluted 1/5 in PBS buffer containing 12.5 ng/ml cSCF and 1 mg/ml BSA. After a 1 hr incubation at room temperature, 100 μl was added to the blocked ELISA plate and incubated an additional hour. The plate was washed 5 times with TBS-T, and 100 μl of a 0.4 μg/ml solution of anti-SCF (R&D Systems) in 1 mg/ml BSA in PBS was added. After 1 hour the plate was washed and incubated with anti-Mouse-HRP (Sigma, St. Louis, Mo.). The plate was developed with BM Blue POD substrate (Roche Diagnostics, Chicago, Ill.) and read at 370 nm.
(§3) TABLE 12 Sequences of the CDR3 Vk1 Region of Selected Antibody Clones with Comparison of koff and SCF Inhibitory Activity The off-rates were determined using a high density surface CM5 chip (5000 RU of immobilized cSCF) on BIAcore and are shown with comparison to the original A2-G8 clone. […] The IC₅₀ in the TF-1 proliferation assay was based on an average of two assays with the exception of the A2-G8-IgG (n = 5).

Cynomolgus Monkey SCF [7] = target: T2, Cynomolgus Monkey SCF; assay: SPR BIAcore, initial screening (high RU of immobilized antigen, low flow rate)
Experimental: Analysis of Fab binding to cSCF was performed by surface plasmon resonance using a BIAcore 2000 (Biacore, Piscataway, N.J.), according to the manufacturer's instructions and a CM5 chip (Biacore) coated with cSCF. For amine coupling, a research grade CM5 chip was activated using the standard NHS/EDC procedure. Cynomologus monkey SCF was diluted to 20 μg/ml in 10 mM NaAcetate, pH 5.0, and a total of 5000 RU's were coupled to channel 2 of the sensor surface. The remaining active sites were quenched by the addition of 1M ethanolamine, pH 8.0. Channel 1 was subjected to the coupling procedure in the absence of protein and was used as a reference surface. […] The koff was calculated from a single concentration of Fab using BIAevaluation software (Biacore).
The koffrates determined using kinetic conditions (low RU's of immobilized antigen and high flow rates) on the BIAcore gave higher values than those koff's determined under non-kinetic conditions used during the initial screening procedure (high RU's of immobilized antigen and low flow rates). This is especially apparent for the A2-G8 Fab, where a koff of 6×10⁻³ sec⁻¹ was measured during the initial screening process, compared to a koff value of 1×10⁻² sec⁻¹ measured using kinetic parameters. […] The koff rates determined in the initial screening process, therefore, should not be considered absolute values but a ranking with other Fabs.

Cynomolgus Monkey SCF [8] = target: T2, Cynomolgus Monkey SCF; assay: SPR BIAcore, 5000 RU immobilized cSCF, off-rate ranking; high density chip (5000 RU cSCF), off-rate ranking
Experimental: as §3
Analysis of Fab binding to cSCF was performed by surface plasmon resonance using a BIAcore 2000 (Biacore, Piscataway, N.J.), according to the manufacturer's instructions and a CM5 chip (Biacore) coated with cSCF. For amine coupling, a research grade CM5 chip was activated using the standard NHS/EDC procedure. Cynomologus monkey SCF was diluted to 20 μg/ml in 10 mM NaAcetate, pH 5.0, and a total of 5000 RU's were coupled to channel 2 of the sensor surface. The remaining active sites were quenched by the addition of 1M ethanolamine, pH 8.0. Channel 1 was subjected to the coupling procedure in the absence of protein and was used as a reference surface. Extracts were diluted 1/5 in HBS-EP running buffer and injected for 2 min using a flow rate of 20 μl/min. The surface was regenerated by two consecutive injections of 25 μl, 10 mM glycine, pH 2.5, using a flow rate of 100 μl/min. The koff was calculated from a single concentration of Fab using BIAevaluation software (Biacore).

human Stem Cell Factor [9] = target: T1, human Stem Cell Factor; assay: cell-based or functional assay; remark: listed apart in the source
Cynomolgus Monkey SCF [10] = target: T2, Cynomolgus Monkey SCF; assay: SPR BIAcore 2000, cSCF over 550 RU immobilized IgG
Experimental: as §1, §2

Cynomolgus Monkey SCF [11] = target: T2, Cynomolgus Monkey SCF; assay: SPR BIAcore, off-rate (legend: 5000 RU immobilized cSCF); Table 12 off-rate list (legend: immobilized cSCF)
human Stem Cell Factor [12] = target: T1, human Stem Cell Factor; assay: cell-based or functional assay; remark: listed apart in the source
Cynomolgus Monkey SCF [13] = target: T2, Cynomolgus Monkey SCF; assay: cell-based or functional assay; remark: listed apart in the source
human Stem Cell Factor [14] = target: T1, human Stem Cell Factor; assay: cell-based or functional assay; remark: listed apart in the source
human Stem Cell Factor [15] = target: T1, human Stem Cell Factor; assay: BIAcore, Fab on immobilized SCF
rat Stem Cell Factor = target: T3, rat Stem Cell Factor (rat, UniProt P21581 26-189, limits assumed); assay: cell-based or functional assay
T3 sequence (looked up): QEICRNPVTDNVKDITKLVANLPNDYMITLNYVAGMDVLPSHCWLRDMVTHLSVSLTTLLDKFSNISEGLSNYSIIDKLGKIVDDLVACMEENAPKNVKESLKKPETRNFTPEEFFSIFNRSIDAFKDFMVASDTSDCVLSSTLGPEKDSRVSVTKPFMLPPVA

T1 sequence (P21583 other isoform, or with tags, fused parts or gaps limits assumed): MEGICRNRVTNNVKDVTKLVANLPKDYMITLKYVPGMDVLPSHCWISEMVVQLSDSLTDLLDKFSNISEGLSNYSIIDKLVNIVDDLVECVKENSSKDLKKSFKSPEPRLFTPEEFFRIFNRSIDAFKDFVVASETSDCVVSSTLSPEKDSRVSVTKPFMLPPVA

TF-1 Fab assay IC50 (human Stem Cell Factor [1]): 5 µg/mL
IC50 TF-1 huSCF Assay (human Stem Cell Factor [2]): 2.36 µg/mL
IC50 TF-1 cynoSCF Assay (Cynomolgus Monkey SCF [3]): 5.7 µg/mL
Kd (human Stem Cell Factor [4]): 9 nM
Kd (Cynomolgus Monkey SCF [5]): 25.1 nM
koff (Cynomolgus Monkey SCF [5]): 0.0106 s⁻¹
kon (Cynomolgus Monkey SCF [5]): 420000 M⁻¹ s⁻¹
% Inhibition SCF Binding ELISA Assay (Cynomolgus Monkey SCF [6]): 30%
koff (Cynomolgus Monkey SCF [7]): 0.006 s⁻¹
koff (Cynomolgus Monkey SCF [8]): 0.00306 s⁻¹
B1: Fab A2-G8 (Fab, V domains shown)
VH: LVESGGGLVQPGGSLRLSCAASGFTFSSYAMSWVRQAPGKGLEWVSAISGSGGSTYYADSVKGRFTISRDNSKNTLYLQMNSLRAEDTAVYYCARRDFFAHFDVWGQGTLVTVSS
VL: QMTQSPSSLSASVGDRVTITCRASQGIRGYLGWYQQKPGKAPKLLIYSASSLQSGVPSRFSGSGSGTDFTLTISSLQPEDFATYYCQQYSGMPYTFGQGTKVEIKR
notes: Fab format; also called anti-SCF Fab A2-G8; parent Fab A2-G8

percent inhibition of SCF-induced TF-1 proliferation at 200 ug/ml Fab (human Stem Cell Factor [12]): > 100%
percent inhibition of SCF-induced TF-1 proliferation at 200 ug/ml Fab (Cynomolgus Monkey SCF [13]): > 100%
Efficacy IC50 (TF-1 proliferation assay, Fab) (human Stem Cell Factor [14]): 30 µg/mL
Kd (human Stem Cell Factor [15]): 9.7 nM
B3: Fab A8 (first screen, Vλ1) (Fab, V domains shown)
VH: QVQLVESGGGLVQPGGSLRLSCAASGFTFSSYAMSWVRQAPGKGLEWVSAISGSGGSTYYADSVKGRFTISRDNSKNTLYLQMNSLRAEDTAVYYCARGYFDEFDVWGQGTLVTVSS
VL: DIVLTQPPSVSGAPGQRVTISCSGSSSNIGSNYVSWYQQLPGTAPKLLIYDNNQRPSGVPDRFSGSKSGTSASLAITGLQSEDEADYYCQSRDHYVVRWVFGGGTKLTVL
notes: It carries FLAG and Strep tags

TF-1 Fab assay IC50 (human Stem Cell Factor [1]): 25 µg/mL
Kd (human Stem Cell Factor [4]): 44 nM
B5: Fab A2-H8 (Fab, V domains shown)
VH: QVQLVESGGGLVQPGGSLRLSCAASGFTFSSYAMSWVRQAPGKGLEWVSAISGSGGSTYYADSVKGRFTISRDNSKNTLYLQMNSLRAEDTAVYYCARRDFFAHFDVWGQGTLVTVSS
VL: DIQMTQSPSSLSASVGDRVTITCRASQGIIGYLGWYQQKPGKAPKLLIYRASSLQSGVPSRFSGSGSGTDFTLTISSLQPEDFATYYCQQYSGMPYTFGQGTKVEIK

TF-1 Fab assay IC50 (human Stem Cell Factor [1]): 8 µg/mL
Kd (human Stem Cell Factor [4]): 17 nM
B7: Fab A2-E8 (Fab, V domains shown)
VH: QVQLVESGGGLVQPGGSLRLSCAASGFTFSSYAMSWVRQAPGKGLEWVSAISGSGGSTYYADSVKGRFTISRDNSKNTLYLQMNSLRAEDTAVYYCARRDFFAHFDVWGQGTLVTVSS
VL: B5 VL with I30F, G31K, G34A, R50A

Second part, the binder before the results:

B2: A2-G8 IgG (antibody, V domains shown)
VH: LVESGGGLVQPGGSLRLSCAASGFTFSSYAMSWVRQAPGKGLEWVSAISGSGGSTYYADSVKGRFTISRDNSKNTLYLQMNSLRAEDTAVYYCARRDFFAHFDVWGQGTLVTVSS
VL: B1 VL
notes: Human IgG1 kappa expressed in HKB11 cells; also called A2-G8 Mab; SCF antibody A2-G8
Eosinophil IgG assay IC50 (human eosinophil survival) (human Stem Cell Factor [1]): 1.5 µg/mL
TF-1 IgG assay IC50 (human Stem Cell Factor [1]): 1 µg/mL
IC50, Cyno Eos (SCF-stimulated cyno eosinophil survival) (human Stem Cell Factor [9]): 3 µg/mL
IC50, Human Eos (SCF-stimulated human eosinophil survival) (human Stem Cell Factor [9]): 1.5 µg/mL
IC50, TF-1 (SCF-induced TF-1 proliferation) (human Stem Cell Factor [9]): 1 µg/mL
IC50 TF-1 huSCF Assay (human Stem Cell Factor [2]): 2.32 µg/mL
IC50 TF-1 cynoSCF Assay (Cynomolgus Monkey SCF [3]): 11.2 µg/mL
Kd (Cynomolgus Monkey SCF [10]): 35.8 nM
koff (Cynomolgus Monkey SCF [10]): 0.0013 s⁻¹
kon (Cynomolgus Monkey SCF [10]): 36300 M⁻¹ s⁻¹
koff (Cynomolgus Monkey SCF [11]): 0.0013 s⁻¹

B4: Fab A2 (Fab, V domains shown)
VH: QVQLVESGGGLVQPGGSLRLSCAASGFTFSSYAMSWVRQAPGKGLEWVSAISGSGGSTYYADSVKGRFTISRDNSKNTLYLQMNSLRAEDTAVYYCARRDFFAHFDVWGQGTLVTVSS
VL: B5 VL with I30S, G31S, G34A, R50A
notes: HuCAL Fab and parent of the A2-xx clones; It carries FLAG and Strep tags
percent inhibition of SCF-induced TF-1 proliferation at 200 ug/ml Fab (human Stem Cell Factor [12]): > 100%
IC50, inhibition of cyno SCF in TF-1 proliferation (Cynomolgus Monkey SCF [13]): 20 to 60 µg/mL
percent inhibition of SCF-induced TF-1 proliferation at 200 ug/ml Fab (Cynomolgus Monkey SCF [13]): > 100%
IC50, inhibition of rat SCF in TF-1 proliferation (rat Stem Cell Factor): 20 to 60 µg/mL
percent inhibition of SCF-induced TF-1 proliferation at 200 ug/ml Fab (rat Stem Cell Factor): > 100%
Efficacy IC50 (TF-1 proliferation assay, Fab) (human Stem Cell Factor [14]): 29 µg/mL
Kd (human Stem Cell Factor [15]): 65.7 nM

B6: Fab A2-A1 (Fab, V domains shown)
VH: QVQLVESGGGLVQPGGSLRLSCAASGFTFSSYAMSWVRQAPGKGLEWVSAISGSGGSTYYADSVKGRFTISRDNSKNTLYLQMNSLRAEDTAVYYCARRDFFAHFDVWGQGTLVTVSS
VL: B5 VL with I30S, G31S, G34A, R50A
TF-1 Fab assay IC50 (human Stem Cell Factor [1]): 25 µg/mL
Kd (human Stem Cell Factor [4]): 57 nM
